Source: patent US20120114557A1

Assays:
Compound ID No 1014 [1] = molecular target: T1, Compound ID No 1014; assay: competition in the dried collagen assay: 1.6 uM soluble competitor protein, 5 uM Comp ID No 1014, 5 uM insoluble type I human collagen
T1 chain: KKWHCYTYFPHHYCVYG

Compound ID No 1014 [2] = molecular target: T1, Compound ID No 1014; assay: competition in the dried collagen assay: 1.6 uM soluble competitor protein, 5 uM Comp ID No 1014, 5 uM insoluble type I rat collagen

B1: Type IV human collagen (soluble competitor protein), P02462 28-1669; P08572 26-1712 (protein)
chain 1: not shown
chain 2: FLAQSVLAGVKKFDVPCGGRDCSGGCQCYPEKGGRGQPGPVGPQGYNGPPGLQGFPGLQGRKGDKGERGAPGVTGPKGDVGARGVSGFPGADGIPGHPGQGGPRGRPGYDGCNGTQGDSGPQGPPGSEGFTGPPGPQGPKGQKGEPYALPKEERDRYRGEPGEPGLVGFQGPPGRPGHVGQMGPVGAPGRPGPPGPPGPKGQQGNRGLGFYGVKGEKGDVGQPGPNGIPSDTLHPIIAPTGVTFHPDQYKGEKGSEGEPGIRGISLKGEEGIMGFPGLRGYPGLSGEKGSPGQKGSRGLDGYQGPDGPRGPKGEAGDPGPPGLPAYSPHPSLAKGARGDPGFPGAQGEPGSQGEPGDPGLPGPPGLSIGDGDQRRGLPGEMGPKGFIGDPGIPALYGGPPGPDGKRGPPGPPGLPGPPGPDGFLFGLKGAKGRAGFPGLPGSPGARGPKGWKGDAGECRCTEGDEAIKGLPGLPGPKGFAGINGEPGRKGDRGDPGQHGLPGFPGLKGVPGNIGAPGPKGAKGDSRTITTKGERGQPGVPGVPGMKGDDGSPGRDGLDGFPGLPGPPGDGIKGPPGDPGYPGIPGTKGTPGEMGPPGLGLPGLKGQRGFPGDAGLPGPPGFLGPPGPAGTPGQIDCDTDVKRAVGGDRQEAIQPGCIGGPKGLPGLPGPPGPTGAKGLRGIPGFAGADGGPGPRGLPGDAGREGFPGPPGFIGPRGSKGAVGLPGPDGSPGPIGLPGPDGPPGERGLPGEVLGAQPGPRGDAGVPGQPGLKGLPGDRGPPGFRGSQGMPGMPGLKGQPGLPGPSGQPGLYGPPGLHGFPGAPGQEGPLGLPGIPGREGLPGDRGDPGDTGAPGPVGMKGLSGDRGDAGFTGEQGHPGSPGFKGIDGMPGTPGLKGDRGSPGMDGFQGMPGLKGRPGFPGSKGEAGFFGIPGLKGLAGEPGFKGSRGDPGPPGPPPVILPGMKDIKGEKGDEGPMGLKGYLGAKGIQGMPGIPGLSGIPGLPGRPGHIKGVKGDIGVPGIPGLPGFPGVAGPPGITGFPGFIGSRGDKGAPGRAGLYGEIGATGDFGDIGDTINLPGRPGLKGERGTTGIPGLKGFFGEKGTEGDIGFPGITGVTGVQGPPGLKGQTGFPGLTGPPGSQGELGRIGLPGGKGDDGWPGAPGLPGFPGLRGIRGLHGLPGTKGFPGSPGSDIHGDPGFPGPPGERGDPGEANTLPGPVGVPGQKGDQGAPGERGPPGSPGLQGFPGITPPSNISGAPGDKGAPGIFGLKGYRGPPGPPGSAALPGSKGDTGNPGAPGTPGTKGWAGDSGPQGRPGVFGLPGEKGPRGEQGFMGNTGPTGAVGDRGPKGPKGDPGFPGAPGTVGAPGIAGIPQKIAVQPGTVGPQGRRGPPGAPGEMGPQGPPGEPGFRGAPGKAGPQGRGGVSAVPGFRGDEGPIGHQGPIGQEGAPGRPGSPGLPGMPGRSVSIGYLLVKHSQTDQEPMCPVGMNKLWSGYSLLYFEGQEKAHNQDLGLAGSCLARFSTMPFLYCNPGDVCYYASRNDKSYWLSTTAPLPMMPVAEDEIKPYISRCSVCEAPAIAIAVHSQDVSIPHCPAGWRSLWIGYSFLMHTAAGDEGGGQSLVSPGSCLEDFRATPFIECNGGRGTCHYYANKYSFWLTTIPEQSFQGSPSADTLKAGLIRTHISRCQVCMKNL
modifications: here or on the partner: as printed: Gd^T-K(Gd^D)-K(Gd^D)-W-H-C-Y-T-Y-F-P-H-H-Y-C-V-Y-G; Gd^T = GdDTPA-thiourea, Gd^D = GdDOTAGA; cyclic through a disulfide between the two cysteines
Work on B1 yielded a % of Comp ID No 1014 bound to insoluble human collagen in presence of the competitor (Compound ID No 1014 [1]) of 59.9% and a % of Comp ID No 1014 bound to insoluble rat collagen in presence of the competitor (Compound ID No 1014 [2]) of 28.1%.
